Assay results as given in patent US20200087373A1 (UNIVERSITY OF COPENHAGEN, published 2020).
Ends that are not written are not given here. * marks the point of attachment. C16 diacid = O=C(O)CCCCCCCCCCCCCCC(=O)*

T1: human GIP receptor (human, UniProt P48546 22-466)
T1 sequence (looked up): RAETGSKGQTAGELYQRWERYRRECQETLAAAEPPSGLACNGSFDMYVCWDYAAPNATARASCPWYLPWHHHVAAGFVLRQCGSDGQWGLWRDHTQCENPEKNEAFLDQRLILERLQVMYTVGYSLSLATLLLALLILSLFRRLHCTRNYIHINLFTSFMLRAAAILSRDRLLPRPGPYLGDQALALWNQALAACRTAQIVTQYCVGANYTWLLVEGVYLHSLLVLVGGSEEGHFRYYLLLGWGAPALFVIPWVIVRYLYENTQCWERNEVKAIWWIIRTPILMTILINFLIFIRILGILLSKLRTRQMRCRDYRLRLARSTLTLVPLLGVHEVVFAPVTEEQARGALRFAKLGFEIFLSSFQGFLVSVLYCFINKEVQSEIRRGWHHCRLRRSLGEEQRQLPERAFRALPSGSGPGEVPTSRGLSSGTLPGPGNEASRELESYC


Legend:
[1] = biological target: T1, human GIP receptor; assay: cell-based or functional assay
[2] = biological target: T1, human GIP receptor; assay: 125I-hGIP competition binding, COS-7 cells expressing hGIPR;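 note: nonspecific binding taken as radioligand bound by untransfected cells, binding buffer with or without 2% HSA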
Protocol: (§1) After incubation, the cells were washed twice in ice-cold binding buffer (+/−2% HSA) and lysed using 200 mM NaOH with 1% SDS for 30 min. Nonspecific binding was determined as the binding of radioactive ligand to untransfected cells.

[3] = biological target: T1, human GIP receptor; assay: 125I-hGIP competition binding, COS-7/hGIPR, 0.1% casein;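 note: nonspecific binding defined as radioligand binding measured on untransfected cells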
Protocol: as §1

[4] = biological target: T1, human GIP receptor; assay: IC50 with 2% HSA over IC50 with 0.1% casein, 125I-hGIP competition, COS-7/hGIPR
Protocol: as §1

[5] = biological target: T1, human GIP receptor; assay: 125I-hGIP competition binding, COS-7/hGIPR, 2% HSA;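 note: nonspecific binding defined as radioligand binding to untransfected cells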
Protocol: as §1

Binder | cAMP agonism, Emax [1] | cAMP antagonism [1] [nM] | cAMP antagonism, log [1] [log M] | IC50 [2] [nM] | log IC50 [2] [log M] | IC50 [3] [nM] | logIC50 [3] [log M] | Fold change HSA (2%)/Casein (0.1%) [4] [fold] | IC50 [5] [nM] | logIC50 [5] [log M] | cAMP agonism [1] [nM] | cAMP agonism, EC50 (log) [1] [log M]
TFISDYK(C16 diacid)IAMDKIHQQDFVNWLLAQK-NH2 (N-terminus assumed; SMILES CC[C@H](C)[C@H](NC(=O)[C@H](CCCCNC(=O)CCCCCCCCCCCCCCC(=O)O)NC(=O)[C@H](Cc1ccc(O)cc1)NC(=O)[C@H](CC(=O)O)NC(=O)[C@H](CO)NC(=O)[C@@H](NC(=O)[C@H](Cc1ccccc1)NC(=O)[C@@H](N)[C@@H](C)O)[C@@H](C)CC)C(=O)N[C@@H](C)C(=O)N[C@@H](CCSC)C(=O)N[C@@H](CC(=O)O)C(=O)N[C@@H](CCCCN)C(=O)N[C@H](C(=O)N[C@@H](Cc1c[nH]cn1)C(=O)N[C@@H](CCC(N)=O)C(=O)N[C@@H](CCC(N)=O)C(=O)N[C@@H](CC(=O)O)C(=O)N[C@@H](Cc1ccccc1)C(=O)N[C@H](C(=O)N[C@@H](CC(N)=O)C(=O)N[C@@H](Cc1c[nH]c2ccccc12)C(=O)N[C@@H](CC(C)C)C(=O)N[C@@H](CC(C)C)C(=O)N[C@@H](C)C(=O)N[C@@H](CCC(N)=O)C(=O)N[C@@H](CCCCN)C(N)=O)C(C)C)[C@@H](C)CC) [AT173 [hGIP(5-30)NH2[S11K]-C16diacid/11]] | 0 | 10 | -8 | 8 | -8.1 | 8.1 | -8.1 | 7.4 | 60.3 | -7.2 | – | –
TFISDYSK(C16 diacid)AMDKIHQQDFVNWLLAQK-NH2 (N-terminus assumed; SMILES CC[C@H](C)[C@H](NC(=O)[C@H](CCCCN)NC(=O)[C@H](CC(=O)O)NC(=O)[C@H](CCSC)NC(=O)[C@H](C)NC(=O)[C@H](CCCCNC(=O)CCCCCCCCCCCCCCC(=O)O)NC(=O)[C@H](CO)NC(=O)[C@H](Cc1ccc(O)cc1)NC(=O)[C@H](CC(=O)O)NC(=O)[C@H](CO)NC(=O)[C@@H](NC(=O)[C@H](Cc1ccccc1)NC(=O)[C@@H](N)[C@@H](C)O)[C@@H](C)CC)C(=O)N[C@@H](Cc1c[nH]cn1)C(=O)N[C@@H](CCC(N)=O)C(=O)N[C@@H](CCC(N)=O)C(=O)N[C@@H](CC(=O)O)C(=O)N[C@@H](Cc1ccccc1)C(=O)N[C@H](C(=O)N[C@@H](CC(N)=O)C(=O)N[C@@H](Cc1c[nH]c2ccccc12)C(=O)N[C@@H](CC(C)C)C(=O)N[C@@H](CC(C)C)C(=O)N[C@@H](C)C(=O)N[C@@H](CCC(N)=O)C(=O)N[C@@H](CCCCN)C(N)=O)C(C)C) [AT174 [hGIP(5-30)NH2[I12K]-C16diacid/12]] | 0 | 23 | -7.6 | 80 | -7.1 | 79.4 | -7.1 | 3.5 | 282 | -6.6 | – | –
TFISDYSIAMDKK(C16 diacid)HQQDFVNWLLAQK-NH2 (N-terminus assumed; SMILES CC[C@H](C)[C@H](NC(=O)[C@H](CO)NC(=O)[C@H](Cc1ccc(O)cc1)NC(=O)[C@H](CC(=O)O)NC(=O)[C@H](CO)NC(=O)[C@@H](NC(=O)[C@H](Cc1ccccc1)NC(=O)[C@@H](N)[C@@H](C)O)[C@@H](C)CC)C(=O)N[C@@H](C)C(=O)N[C@@H](CCSC)C(=O)N[C@@H](CC(=O)O)C(=O)N[C@@H](CCCCN)C(=O)N[C@@H](CCCCNC(=O)CCCCCCCCCCCCCCC(=O)O)C(=O)N[C@@H](Cc1c[nH]cn1)C(=O)N[C@@H](CCC(N)=O)C(=O)N[C@@H](CCC(N)=O)C(=O)N[C@@H](CC(=O)O)C(=O)N[C@@H](Cc1ccccc1)C(=O)N[C@H](C(=O)N[C@@H](CC(N)=O)C(=O)N[C@@H](Cc1c[nH]c2ccccc12)C(=O)N[C@@H](CC(C)C)C(=O)N[C@@H](CC(C)C)C(=O)N[C@@H](C)C(=O)N[C@@H](CCC(N)=O)C(=O)N[C@@H](CCCCN)C(N)=O)C(C)C) [AT178 [hGIP(5-30)NH2[I17K]-C16diacid/17]] | 0 | 33 | -7.5 | 66 | -7.2 | 66.1 | -7.2 | 3 | 195 | -6.7 | – | –
TFISDYSIAK(C16 diacid)DKIHQQDFVNWLLAQK-NH2 (N-terminus assumed; SMILES CC[C@H](C)[C@H](NC(=O)[C@H](CO)NC(=O)[C@H](Cc1ccc(O)cc1)NC(=O)[C@H](CC(=O)O)NC(=O)[C@H](CO)NC(=O)[C@@H](NC(=O)[C@H](Cc1ccccc1)NC(=O)[C@@H](N)[C@@H](C)O)[C@@H](C)CC)C(=O)N[C@@H](C)C(=O)N[C@@H](CCCCNC(=O)CCCCCCCCCCCCCCC(=O)O)C(=O)N[C@@H](CC(=O)O)C(=O)N[C@@H](CCCCN)C(=O)N[C@H](C(=O)N[C@@H](Cc1c[nH]cn1)C(=O)N[C@@H](CCC(N)=O)C(=O)N[C@@H](CCC(N)=O)C(=O)N[C@@H](CC(=O)O)C(=O)N[C@@H](Cc1ccccc1)C(=O)N[C@H](C(=O)N[C@@H](CC(N)=O)C(=O)N[C@@H](Cc1c[nH]c2ccccc12)C(=O)N[C@@H](CC(C)C)C(=O)N[C@@H](CC(C)C)C(=O)N[C@@H](C)C(=O)N[C@@H](CCC(N)=O)C(=O)N[C@@H](CCCCN)C(N)=O)C(C)C)[C@@H](C)CC) [AT176 [hGIP(5-30)NH2[M14K]-C16diacid/14]] | 12 | 121 | -6.9 | 114 | -6.9 | 115 | -6.9 | 4.9 | 562 | -6.3 | 121 | -7
TFISDYSIK(C16 diacid)MDKIHQQDFVNWLLAQK-NH2 (N-terminus assumed; SMILES CC[C@H](C)[C@H](NC(=O)[C@H](CCCCN)NC(=O)[C@H](CC(=O)O)NC(=O)[C@H](CCSC)NC(=O)[C@H](CCCCNC(=O)CCCCCCCCCCCCCCC(=O)O)NC(=O)[C@@H](NC(=O)[C@H](CO)NC(=O)[C@H](Cc1ccc(O)cc1)NC(=O)[C@H](CC(=O)O)NC(=O)[C@H](CO)NC(=O)[C@@H](NC(=O)[C@H](Cc1ccccc1)NC(=O)[C@@H](N)[C@@H](C)O)[C@@H](C)CC)[C@@H](C)CC)C(=O)N[C@@H](Cc1c[nH]cn1)C(=O)N[C@@H](CCC(N)=O)C(=O)N[C@@H](CCC(N)=O)C(=O)N[C@@H](CC(=O)O)C(=O)N[C@@H](Cc1ccccc1)C(=O)N[C@H](C(=O)N[C@@H](CC(N)=O)C(=O)N[C@@H](Cc1c[nH]c2ccccc12)C(=O)N[C@@H](CC(C)C)C(=O)N[C@@H](CC(C)C)C(=O)N[C@@H](C)C(=O)N[C@@H](CCC(N)=O)C(=O)N[C@@H](CCCCN)C(N)=O)C(C)C) [AT175 [hGIP(5-30)NH2[A13K]-C16diacid/13]] | 0 | 17 | -7.8 | 73 | -7.1 | 72.4 | -7.1 | 7.8 | 562 | -6.3 | – | –
TFISDYSIAMK(C16 diacid)KIHQQDFVNWLLAQK-NH2 (N-terminus assumed; SMILES CC[C@H](C)[C@H](NC(=O)[C@H](CO)NC(=O)[C@H](Cc1ccc(O)cc1)NC(=O)[C@H](CC(=O)O)NC(=O)[C@H](CO)NC(=O)[C@@H](NC(=O)[C@H](Cc1ccccc1)NC(=O)[C@@H](N)[C@@H](C)O)[C@@H](C)CC)C(=O)N[C@@H](C)C(=O)N[C@@H](CCSC)C(=O)N[C@@H](CCCCNC(=O)CCCCCCCCCCCCCCC(=O)O)C(=O)N[C@@H](CCCCN)C(=O)N[C@H](C(=O)N[C@@H](Cc1c[nH]cn1)C(=O)N[C@@H](CCC(N)=O)C(=O)N[C@@H](CCC(N)=O)C(=O)N[C@@H](CC(=O)O)C(=O)N[C@@H](Cc1ccccc1)C(=O)N[C@H](C(=O)N[C@@H](CC(N)=O)C(=O)N[C@@H](Cc1c[nH]c2ccccc12)C(=O)N[C@@H](CC(C)C)C(=O)N[C@@H](CC(C)C)C(=O)N[C@@H](C)C(=O)N[C@@H](CCC(N)=O)C(=O)N[C@@H](CCCCN)C(N)=O)C(C)C)[C@@H](C)CC) [AT177 [hGIP(5-30)NH2[D15K]-C16diacid/15]] | 30 | 59 | -7.2 | 134 | -6.9 | 135 | -6.87 | 3.8 | 513 | -6.29 | 59 | -7
